Residue numbers refer to the chain shown, from its start. Names and notes keep the numbering of the source.

The target of assay [1] is T1, human activated Protein C (human, Light chain (chain 1): the Gla domain holds gamma-carboxyglutamates, from memory at pos 6, 7, 14, 16, 19, 20, 25, 26 and 29, written E. Pos 71 is beta-hydroxy-Asp, written D. N-glycans are present. …).
T1 construct: also called aPC; APC
T1 light: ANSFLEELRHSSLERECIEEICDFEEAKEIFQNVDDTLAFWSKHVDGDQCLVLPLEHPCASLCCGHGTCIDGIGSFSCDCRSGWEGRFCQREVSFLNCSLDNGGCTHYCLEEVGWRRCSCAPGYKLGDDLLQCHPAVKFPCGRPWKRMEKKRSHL
T1 heavy: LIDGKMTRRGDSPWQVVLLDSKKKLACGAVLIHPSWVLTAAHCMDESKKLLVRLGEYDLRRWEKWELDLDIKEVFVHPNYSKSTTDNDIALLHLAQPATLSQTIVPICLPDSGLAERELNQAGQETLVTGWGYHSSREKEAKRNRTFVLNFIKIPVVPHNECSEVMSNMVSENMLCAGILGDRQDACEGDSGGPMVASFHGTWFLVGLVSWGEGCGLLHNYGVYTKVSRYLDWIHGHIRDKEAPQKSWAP
The assay is described as follows: aPC-ELISA, human aPC coated, IgG titrated. On the procedure:
(§1) Plates (Nunc, cat#442404) were coated with 100 μl of human aPC (1 μg/ml) or hPC (2 μg/ml) diluted in DPBS (Gibco, cat#14040) overnight (o/n) at 4° C. After washing, the ELISA plate was blocked with 200 μl MPBST for 1 hr at RT, and tapped dry on a stack of paper towels. To each well 100 μl of IgG to be tested was added, and incubated for 1 hr at RT (for EC₅₀ determinations 1:3 dilutions were performed starting at 20 nM). Plates were washed 5× with PBST. 100 μl of anti-hIgG Fc-HRP (Sigma, cat#A0170) diluted 1:10,000 in PBST was added to each well. Plates were washed and 100 μl/well of TMB substrate was added and incubated at room temperature for 5 min. 100 μl/well of 1 N HCl was added to terminate the reaction. The plate was read with an ELISA plate reader (Biotek, Elx405) at 450 nm wavelength.
(ELISA stands for enzyme-linked immunosorbent assay.)

For assay [2], the target named is T2, human Protein C (unactivated, zymogen) (human, UniProt P04070 43-461).
T2 construct: mature; also called PC; hPC
The assay is described as follows: ELISA, plate coated with human PC, IgG titrated (PC-ELISA). The protocol:
as §1

Assay [3] has as its target T1, human activated Protein C. Put plainly: SPR, human aPC. (In general: In SPR one partner is held on a chip, and binding of the other changes the refractive index at the surface.)
The target of assay [4] is T2, human Protein C (unactivated, zymogen). The assay is described as follows: PC-ELISA, hPC coated. The protocol:
as §1

In assay [5] the target is T1, human activated Protein C. Put plainly: Biacore (SPR).

B1: TPP-3656 (HU1573-V3-hIgG2Kappa) (antibody, V domains shown)
VH: EVQLVESGGGLVQPGGSLRLSCAASGFTFSNYYLNWVRQAPGKGLEWVGDIRLKSNNYEKHYAESVKGRFTISRDDSKNSLYLQMNSLKTEDTAVYYCAREGDYFDYWGQGTLVTVSS
VL: DIVLTQSPASLAVSPGQRATITCKASESVDSFGATFMHWYQQKPGQPPKLLIYLASNLESGVPARFSGSGSGTDFTLTINPVEANDTANYYCQQNNEDPYTFGQGTKLEIKR
notes: also called TPP-3656 VK7-3
In general, EC50 refers to the concentration that produces a half-maximal response. Higher therefore signals lower potency in that assay. Molecule B1 returned an EC50 in assay [1] of 0.67 nM. In addition, in assay [2], the binding result is listed as “no binding (tested: 10 µM (log M -5))”.

B2: TPP-3356 (H1573VK2-VH1Cgl1-hIgG2Kappa) (antibody, V domains shown)
VH: B1 VH with G49A, A99I, L113T
VL: DIVMTQTPLSLSVTPGQPASISCKASESVDSFGATFMHWYLQKPGQPPQLLIYLASNLESGVPDRFSGSGSGTDFTLKISRVEAEDVGVYYCQQNNEDPYTFGQGTKLEIKR
notes: also called TPP-3356 VK2D-29
The term Kd denotes the constant that tells how readily two partners part at equilibrium. For B2, the Kd in assay [3] turned out to be 13.6 nM. Further, the binding result in assay [4] is listed as “no binding (tested: up to 10 µM)”. This molecule gave an EC50 in assay [1] of 0.5 nM.

B3: TPP-3657 (HU1573-V2-hIgG2Kappa) (antibody, V domains shown)
VH: EVQLVESGGGLVQPGGSLRLSCAASGFTFSNYYLNWVRQAPGKGLEWVADIKSNNYEKHYAESVKGRFTISRDNAKNSLYLQMNSLRAEDTAVYYCAREGDYFDYWGQGTLVTVSS
VL: B1 VL
notes: also called TPP-3657 VK7-3
B3 yielded an EC50 in assay [1] of 0.43 nM. Besides, the binding result in assay [2] is given as “no binding (tested: 10 µM (log M -5))”.

B4: TPP-3639 (HU1573-V4-hIgG2Kappa) (antibody, V domains shown)
VH: B1 VH with N31S, L34M, G49A, E64D, D76N, S77A, K89R, T90A
VL: B1 VL with K24R
notes: also called TPP-3639 VK7-3
For the molecule B4, the binding result in assay [4] was “no binding”. The molecule further yielded an EC50 in assay [1] of 0.42 nM.

B5: TPP-4885 (BAY1896502) (antibody, human IgG2, kappa, V domains shown)
VH: B1 VH
VL: B1 VL with N85D
notes: TPP-3656 with the N85D mutation in the light chain; IgG2/kappa like TPP-3656; also called type II ab BAY1896502
B5 yielded a Kd in assay [5] of 14 nM.

B6: TPP-3357 (H1573Vk2A-VH1Cgl2-hIgG2Kappa) (antibody, V domains shown)
VH: B1 VH with N31S, L34M, G49S, E64D, D76N, S77A, K89R, T90A
VL: B2 VL with M4L, K24R
As to B6, binding in assay [3] was put at a Kd of 23.4 nM.

B7: TPP-3658 (HU1573-V1-hIgG2Kappa) (antibody, V domains shown)
VH: B1 VH with G49A, A99I, L113T
VL: B1 VL
notes: also called TPP-3658 VK7-3
In assay [1], B7 showed an EC50 of 0.65 nM. In assay [2], the binding result is “no binding (tested: 10 µM (log M -5))”.

The record behind these values is patent publication US20180326053A1 (OKLAHOMA MEDICAL RESEARCH FOUNDATION, published 2018).
